This note sets out measurements from patent publication US20120301473A1 (NORTHWESTERN UNIVERSITY, published 2012).

The target in assay [1] is untagged recombinant full-length human α-synuclein (human, UniProt P37840 1-140). Put plainly: dot blot. The procedure:
(§1) 45 ng/spot was applied to the nitrocellulose. Total Tau was determined using Tau12. […] Each point represents a minimum of three independent measurements. […] Scale bar is 200 nm. […] Monomeric and dimeric Tau were isolated from the same aggregation reaction. Also included is an electroeluted monomeric sample that was never exposed to AA (−AA). 12 ng/spot was applied to the nitrocellulose.
(§2) For dot blots, samples were spotted directly onto nitrocellulose membranes (44). Both Western and dot blot membranes were blocked with 5% nonfat dry milk in TBS, pH 7.4, and incubated in primary antibodies overnight at 4° C. For dot blots, 0.05% Triton X-100 was added to the TBS solution. The Tau12 (45), TauS (46), Tau7 (47), MOAB-2 (a mouse monoclonal antibody (IgG1) produced in the Binder laboratory what recognizes Aβ40 and −42), and TOC1 mouse monoclonal antibodies were used at 0.0067, 0.01, 0.04, 0.05, and 0.1 μg/ml, respectively. The mouse monoclonal anti-α-synuclein (Chemicon; MAB5320) and rabbit monoclonal anti-β-actin (Cell Signaling Technology; clone 13E5) antibodies were diluted to 1:2000 and 1:1000, respectively. The rabbit polyclonal antibodies R1 (48) and His-probe (Santa Cruz Biotechnology; clone H-15) were used at 0.0075 and 0.5 μg/ml, respectively. […]

The target of assay [2] is T1, recombinant human Aβ42 (rPeptide) (human, UniProt P05067 672-713).
T1 construct: domain: Aβ42; Tested in the monomeric (unaggregated), oligomeric and filamentous states; also called Aβ Olig; Aβ Fil
T1 sequence (P05067 672-713 limits assumed): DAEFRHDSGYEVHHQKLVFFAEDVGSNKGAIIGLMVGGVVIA
Put plainly: dot blot. How it is done:
as §1, §2

In assay [3] the target is T2, Tau MTBR construct consisting of residues 244-372 of hTau40 (human, UniProt P10636 561-689).
T2 construct: Expressed in E. coli from pET-17b; Assembled with AA before the dot blot; not shown: poly-His tag C-terminal to residue 372
T2 sequence (P10636 other isoform, or with tags, fused parts or gaps): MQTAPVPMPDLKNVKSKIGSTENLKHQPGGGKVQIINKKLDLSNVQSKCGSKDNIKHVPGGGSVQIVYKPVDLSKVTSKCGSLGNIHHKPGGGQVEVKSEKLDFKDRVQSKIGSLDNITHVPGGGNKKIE
Briefly: dot blot of AA-assembled construct.

Assay [4] deals with tau deletion construct Δ209-228 (hTau40), aggregated (human, UniProt P10636 1-758). Briefly: aggregated deletion construct incubated with the antibody. How it is done: (§3) Two overlapping tau deletion constructs (Δ209-228 and Δ221-238) were aggregated and incubated with the TOC1 antibody or with the Tau7 antibody. Both were positive for Tau7 which recognizes the last 11 amino acids of tau, but negative for TOC1.
Chain of tau deletion construct Δ209-228 (hTau40), aggregated (P10636 other isoform, or with tags, fused parts or gaps mutant): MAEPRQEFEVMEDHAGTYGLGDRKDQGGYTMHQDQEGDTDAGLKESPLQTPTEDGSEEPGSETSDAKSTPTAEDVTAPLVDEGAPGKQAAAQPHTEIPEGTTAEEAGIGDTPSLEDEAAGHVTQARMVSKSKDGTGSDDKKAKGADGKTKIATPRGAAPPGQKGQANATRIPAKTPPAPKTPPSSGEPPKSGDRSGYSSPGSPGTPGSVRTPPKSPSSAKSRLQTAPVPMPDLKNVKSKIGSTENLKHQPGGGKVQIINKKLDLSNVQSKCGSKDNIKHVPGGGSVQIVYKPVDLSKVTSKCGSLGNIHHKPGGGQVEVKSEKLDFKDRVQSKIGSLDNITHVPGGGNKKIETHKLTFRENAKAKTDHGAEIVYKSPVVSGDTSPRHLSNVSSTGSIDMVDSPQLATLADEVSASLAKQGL

The target in assay [5] is tau deletion construct Δ221-238 (hTau40), aggregated (human, UniProt P10636 1-758). Described as above. The procedure: as §3
Chain of tau deletion construct Δ221-238 (hTau40), aggregated (P10636 other isoform, or with tags, fused parts or gaps mutant): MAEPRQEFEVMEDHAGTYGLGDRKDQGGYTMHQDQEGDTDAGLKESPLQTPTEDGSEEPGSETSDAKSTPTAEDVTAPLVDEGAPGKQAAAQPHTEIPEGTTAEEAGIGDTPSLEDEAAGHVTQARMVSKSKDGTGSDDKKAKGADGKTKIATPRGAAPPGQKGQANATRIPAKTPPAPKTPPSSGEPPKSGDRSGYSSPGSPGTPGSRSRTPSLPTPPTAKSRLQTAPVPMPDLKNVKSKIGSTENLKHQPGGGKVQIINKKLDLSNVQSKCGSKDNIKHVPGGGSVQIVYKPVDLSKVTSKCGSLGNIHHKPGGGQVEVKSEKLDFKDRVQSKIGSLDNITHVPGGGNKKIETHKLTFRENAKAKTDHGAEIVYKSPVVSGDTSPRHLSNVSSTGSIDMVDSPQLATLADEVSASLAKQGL
Assay [6] concerns the target T3, Tau oligomers (hTau40 aggregates <50 nm in length; sucrose gradient Fraction 3) (human, UniProt P10636 1-758).
T3 construct: Prefibrillar aggregates of recombinant poly-His tagged hTau40 made with arachidonic acid; The number of chains is not defined; also called oligomeric structures; oligomer fraction
Put plainly: immunogold EM, normalised to poly-His tag labeling of the same preparation.

T3 sequence (P10636 other isoform, or with tags, fused parts or gaps limits assumed): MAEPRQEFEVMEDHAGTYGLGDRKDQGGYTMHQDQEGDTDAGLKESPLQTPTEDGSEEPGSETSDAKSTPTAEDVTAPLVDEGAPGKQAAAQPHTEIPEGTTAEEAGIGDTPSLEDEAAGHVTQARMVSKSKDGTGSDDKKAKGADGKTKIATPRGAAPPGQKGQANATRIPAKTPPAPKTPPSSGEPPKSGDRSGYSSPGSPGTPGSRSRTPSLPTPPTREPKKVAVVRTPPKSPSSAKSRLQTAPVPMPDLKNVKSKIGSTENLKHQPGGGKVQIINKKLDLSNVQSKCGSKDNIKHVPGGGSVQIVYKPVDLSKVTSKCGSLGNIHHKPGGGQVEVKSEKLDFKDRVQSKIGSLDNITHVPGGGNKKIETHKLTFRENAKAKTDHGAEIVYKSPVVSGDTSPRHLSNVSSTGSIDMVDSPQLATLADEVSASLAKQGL

B1: Tau oligomeric complex-1 (TOC1) monoclonal antibody (antibody)
heavy: QVQLQQPGAELVMPGASVKLSCKASGYTFTSYWMHWVKQRPGQGLEWIGEIDPSDSYTNYNQKFKGKSTLTVDKSSSTAYMQLSSLTSEDSAVYYCARSGDGSSPWYFDVWGTGTTVTVSSESQSFPNVFPLVSCESPLSDKNLVAMGCLARDFLPSTISFTWNYQNNTEVIQGIRTFPTLRTGGKYLATSQVLLSPKSILEGSDEYLVCKIHYGGKNKDLHVPIPAVAEMNPNVNVFVPPRDGFSGPAPRKSKLICEATNFTPKPITVSWLKDGKLVESGFTTDPVTIENKGSTPQTYKVISTLTISEIDWLNLNVYTCRVDHRGLTFLKNVSSTCAASPSTDILTFTIPPSFADIFLSKSANLTCLVSNLATYETLNISWASQSGEPLETKIKIMESHPNGTFSAKGVASVCVEDWNNRKEFVCTVTHRDLPSPQKKFISKPNEVHKHPPAVYLLPPAREQLNLRESATVTCLVKGFSPADISVQWLQRGQLLPQEKYVTSAPMPEPGAPGFYFTHSILTVTEEEWNSGETYTCVVGHEALPHLVTERTVDKSTGKPTLYNVSLIMSDTGGTCY
light: DVLMTQTPLSLPVSLGDQASISCRSSQSIVHSNGNTYLEWYLQKPGQSPKLLIYKVSNRFSGVPDRFSGSGSGTDFTLKISRVEAEDLGVYYCFQGSHVPRTFGGGTKLEIKRADAAPTVSIFPPSSEQLTSGGASVVCFLNNFYPKDINVKWKIDGSERQNGVLNSWTDQDSKDSTYSMSSTLTLTKDEYERHNSYTCEATHKTSTSPIVKSFNRNEC
notes: Mouse monoclonal of the IgM isotype, purified from hybridoma culture; Raised in Tau null mice against electroeluted B4M cross-linked Tau dimers and boosted with cross-linked oligomers; The light chain protein print marks the leader with a dash; For the heavy chain only the DNA print does (57 nt)
For the molecule B1, the binding result in assay [1], in assay [2], in assay [3], in assay [4] and in assay [5] was “no binding” each time. Also, the “fold preference of immunogold labeling, oligomers over filaments (TOC1:His tag labeling)” value in assay [6] is over 7 fold.
